T1: FUS-LC fused to mCherry (UniProt P35637 2-214)
T1 sequence: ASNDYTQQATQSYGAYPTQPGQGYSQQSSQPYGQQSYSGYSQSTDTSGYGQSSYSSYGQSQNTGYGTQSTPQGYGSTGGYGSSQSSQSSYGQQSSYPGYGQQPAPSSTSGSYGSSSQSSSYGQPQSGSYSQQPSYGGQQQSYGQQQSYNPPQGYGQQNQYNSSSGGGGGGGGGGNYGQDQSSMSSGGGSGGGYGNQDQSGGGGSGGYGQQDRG

T2: Kapβ2 (UniProt Q92973-2 1-890)
T2 sequence: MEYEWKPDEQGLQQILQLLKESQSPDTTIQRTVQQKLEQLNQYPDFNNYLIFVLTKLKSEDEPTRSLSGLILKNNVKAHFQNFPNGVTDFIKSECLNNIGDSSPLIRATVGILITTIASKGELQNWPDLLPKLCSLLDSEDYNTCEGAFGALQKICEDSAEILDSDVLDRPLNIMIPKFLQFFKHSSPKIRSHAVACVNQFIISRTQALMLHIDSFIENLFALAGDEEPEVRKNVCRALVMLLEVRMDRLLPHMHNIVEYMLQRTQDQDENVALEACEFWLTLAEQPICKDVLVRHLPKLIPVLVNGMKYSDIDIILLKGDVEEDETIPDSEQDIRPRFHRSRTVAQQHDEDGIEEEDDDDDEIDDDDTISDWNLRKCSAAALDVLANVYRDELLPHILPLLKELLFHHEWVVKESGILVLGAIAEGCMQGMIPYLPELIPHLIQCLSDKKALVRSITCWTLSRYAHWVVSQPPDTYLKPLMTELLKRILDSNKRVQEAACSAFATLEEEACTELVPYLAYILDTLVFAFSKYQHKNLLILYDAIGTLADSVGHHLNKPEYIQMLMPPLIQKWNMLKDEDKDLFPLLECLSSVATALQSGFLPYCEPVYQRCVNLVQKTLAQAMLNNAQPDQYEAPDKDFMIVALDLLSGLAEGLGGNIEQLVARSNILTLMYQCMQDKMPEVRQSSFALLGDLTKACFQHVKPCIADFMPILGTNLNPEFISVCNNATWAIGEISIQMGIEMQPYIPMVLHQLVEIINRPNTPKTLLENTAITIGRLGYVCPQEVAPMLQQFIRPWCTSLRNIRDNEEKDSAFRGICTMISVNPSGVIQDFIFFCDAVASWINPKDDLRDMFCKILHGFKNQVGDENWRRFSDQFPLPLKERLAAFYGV

T3: GST-Kapβ2 (UniProt Q92973-2 1-890)
T3 sequence: T2 sequence

T4: MBP-FUS (UniProt P35637 1-526)
T4 sequence: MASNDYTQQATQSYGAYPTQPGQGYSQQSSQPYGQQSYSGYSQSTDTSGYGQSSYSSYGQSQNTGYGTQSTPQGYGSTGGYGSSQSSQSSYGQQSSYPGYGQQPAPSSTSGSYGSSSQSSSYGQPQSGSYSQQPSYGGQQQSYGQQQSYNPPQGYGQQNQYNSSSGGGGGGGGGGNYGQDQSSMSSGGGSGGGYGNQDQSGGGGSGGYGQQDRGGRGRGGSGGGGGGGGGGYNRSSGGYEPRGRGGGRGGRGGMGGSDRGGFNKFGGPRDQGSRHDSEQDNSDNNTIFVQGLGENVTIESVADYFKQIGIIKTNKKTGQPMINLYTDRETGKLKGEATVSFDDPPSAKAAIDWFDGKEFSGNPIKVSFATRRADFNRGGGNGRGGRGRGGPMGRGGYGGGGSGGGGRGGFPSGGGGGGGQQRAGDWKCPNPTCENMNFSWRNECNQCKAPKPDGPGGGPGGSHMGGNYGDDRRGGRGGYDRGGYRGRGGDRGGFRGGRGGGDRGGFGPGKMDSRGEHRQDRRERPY

B1: GFP:FUS-LC (domain or fragment)
chain: T1 sequence
B2: GFP:hnRNPA2-LC (domain or fragment)
chain: MQEVQSSRSGRGGNFGFGDSRGGGGNFGPGPGSNFRGGSDGYGSGRGFGDGYNGYGGGPGGGNFGGSPGYGGGRGGYGGGGPGYGNQGGGYGGGYDNYGGGNYGSGNYNDFGNYNQQPSNYGPMKSGNFGGSRNMGGPYGGGNYGPGGSGGSGGYGGRSRY
B3: FUS(1-500) (domain or fragment)
chain: MASNDYTQQATQSYGAYPTQPGQGYSQQSSQPYGQQSYSGYSQSTDTSGYGQSSYSSYGQSQNTGYGTQSTPQGYGSTGGYGSSQSSQSSYGQQSSYPGYGQQPAPSSTSGSYGSSSQSSSYGQPQSGSYSQQPSYGGQQQSYGQQQSYNPPQGYGQQNQYNSSSGGGGGGGGGGNYGQDQSSMSSGGGSGGGYGNQDQSGGGGSGGYGQQDRGGRGRGGSGGGGGGGGGGYNRSSGGYEPRGRGGGRGGRGGMGGSDRGGFNKFGGPRDQGSRHDSEQDNSDNNTIFVQGLGENVTIESVADYFKQIGIIKTNKKTGQPMINLYTDRETGKLKGEATVSFDDPPSAKAAIDWFDGKEFSGNPIKVSFATRRADFNRGGGNGRGGRGRGGPMGRGGYGGGGSGGGGRGGFPSGGGGGGGQQRAGDWKCPNPTCENMNFSWRNECNQCKAPKPDGPGGGPGGSHMGGNYGDDRRGGRGGYDRGGYRGRGGDRGGFRGGRGG
B4: Kapβ2(ΔLoop) (natural protein)
chain: MEYEWKPDEQGLQQILQLLKESQSPDTTIQRTVQQKLEQLNQYPDFNNYLIFVLTKLKSEDEPTRSLSGLILKNNVKAHFQNFPNGVTDFIKSECLNNIGDSSPLIRATVGILITTIASKGELQNWPDLLPKLCSLLDSEDYNTCEGAFGALQKICEDSAEILDSDVLDRPLNIMIPKFLQFFKHSSPKIRSHAVACVNQFIISRTQALMLHIDSFIENLFALAGDEEPEVRKNVCRALVMLLEVRMDRLLPHMHNIVEYMLQRTQDQDENVALEACEFWLTLAEQPICKDVLVRHLPKLIPVLVNGMKYSDIDIILLKGGGSGGSGSDWNLRKCSAAALDVLANVYRDELLPHILPLLKELLFHHEWVVKESGILVLGAIAEGCMQGMIPYLPELIPHLIQCLSDKKALVRSITCWTLSRYAHWVVSQPPDTYLKPLMTELLKRILDSNKRVQEAACSAFATLEEEACTELVPYLAYILDTLVFAFSKYQHKNLLILYDAIGTLADSVGHHLNKPEYIQMLMPPLIQKWNMLKDEDKDLFPLLECLSSVATALQSGFLPYCEPVYQRCVNLVQKTLAQAMLNNAQPDQYEAPDKDFMIVALDLLSGLAEGLGGNIEQLVARSNILTLMYQCMQDKMPEVRQSSFALLGDLTKACFQHVKPCIADFMPILGTNLNPEFISVCNNATWAIGEISIQMGIEMQPYIPMVLHQLVEIINRPNTPKTLLENTAITIGRLGYVCPQEVAPMLQQFIRPWCTSLRNIRDNEEKDSAFRGICTMISVNPSGVIQDFIFFCDAVASWINPKDDLRDMFCKILHGFKNQVGDENWRRFSDQFPLPLKERLAAFYGV

The target of one assay is T1, FUS-LC fused to mCherry. As to the kind of experiment: hydrogel binding assay.
Assay [1] has as its target T2, Kapβ2. Nature of the assay: pull-down.
The assay “Kapβ2(ΔLoop)” addresses B4. Nature of the assay: ITC.
A further assay has as its target T3, GST-Kapβ2. Nature of the assay: pull-down.
Assay [2] deals with T2, Kapβ2. As to the kind of experiment: hydrogel binding assay.
Assay [3] has as its target T2, Kapβ2. As to the kind of experiment: NMR titration.
The next assay deals with T4, MBP-FUS. Nature of the assay: ITC. Background: In ITC the heat of successive injections is recorded.

By Kd is commonly meant the concentration at which binding is half-saturated. Read a high Kd as lower affinity. Broadly, the stoichiometry N is a count of units in the complex or per binding partner.

Regarding B1, the binding result with FUS-LC fused to mCherry was “binds”.

On to PRPRPRPRPRPRPRPRPRPRPRPRPRPRPRPRPRPR [GST-PR18], for which, in the assay with Kapβ2 [1], the binding result was “binds”.

PRPRPRPRPRPRPRPRPRPRPRPRPRPRPRPRPRPR [MBP-PR18]: in the assay with Kapβ2(ΔLoop), the Kd was 81.3 nM and the “stoichiometry N” value is 1. In addition, the binding result in the assay with GST-Kapβ2 is “binds”.

For B2, in the assay with Kapβ2 [2], the binding result is “binds”.

On to B3, for which the binding result with Kapβ2 [3] is “binds”.

In the case of B4, in the assay with MBP-FUS, the binding result is “binds”.

As for PRPRPRPRPRPRPRPRPRPRPRPRPRPRPRPRPRPRPRPR [(Pro-Arg)20-HA], the binding result with Kapβ2 [3] was “binds”.
